Results from article PMC10746245.

Target: MoKat2 tagged with FLAG or GFP (MoKat2-FLAG and MoKat2-GFP) (Magnaporthe oryzae)
Assay: native gel or EMSA

Work on “MoKat2 tagged with FLAG or GFP (MoKat2-FLAG and MoKat2-GFP) (enzyme)” yielded a stoichiometry N of 2.
